Reference: IntAct's records for PubMed 16606821

B1: Insulin-induced gene 1 protein (Homo sapiens), O15503-1 (parent)
chain: MPRLHDHFWSCSCAHSARRRGPPRASAAGLAAKVGEMINVSVSGPSLLAAHGAPDADPAPRGRSAAMSGPEPGSPYPNTWHHRLLQRSLVLFSVGVVLALVLNLLQIQRNVTLFPEEVIATIFSSAWWVPPCCGTAAAVVGLLYPCIDSHLGEPHKFKREWASVMRCIAVFVGINHASAKLDFANNVQLSLTLAALSLGLWWTFDRSRSGLGLGITIAFLATLITQFLVYNGVYQYTSPDFLYIRSWLPCIFFSGGVTVGNIGRQLAMGVPEKPHSD
partner: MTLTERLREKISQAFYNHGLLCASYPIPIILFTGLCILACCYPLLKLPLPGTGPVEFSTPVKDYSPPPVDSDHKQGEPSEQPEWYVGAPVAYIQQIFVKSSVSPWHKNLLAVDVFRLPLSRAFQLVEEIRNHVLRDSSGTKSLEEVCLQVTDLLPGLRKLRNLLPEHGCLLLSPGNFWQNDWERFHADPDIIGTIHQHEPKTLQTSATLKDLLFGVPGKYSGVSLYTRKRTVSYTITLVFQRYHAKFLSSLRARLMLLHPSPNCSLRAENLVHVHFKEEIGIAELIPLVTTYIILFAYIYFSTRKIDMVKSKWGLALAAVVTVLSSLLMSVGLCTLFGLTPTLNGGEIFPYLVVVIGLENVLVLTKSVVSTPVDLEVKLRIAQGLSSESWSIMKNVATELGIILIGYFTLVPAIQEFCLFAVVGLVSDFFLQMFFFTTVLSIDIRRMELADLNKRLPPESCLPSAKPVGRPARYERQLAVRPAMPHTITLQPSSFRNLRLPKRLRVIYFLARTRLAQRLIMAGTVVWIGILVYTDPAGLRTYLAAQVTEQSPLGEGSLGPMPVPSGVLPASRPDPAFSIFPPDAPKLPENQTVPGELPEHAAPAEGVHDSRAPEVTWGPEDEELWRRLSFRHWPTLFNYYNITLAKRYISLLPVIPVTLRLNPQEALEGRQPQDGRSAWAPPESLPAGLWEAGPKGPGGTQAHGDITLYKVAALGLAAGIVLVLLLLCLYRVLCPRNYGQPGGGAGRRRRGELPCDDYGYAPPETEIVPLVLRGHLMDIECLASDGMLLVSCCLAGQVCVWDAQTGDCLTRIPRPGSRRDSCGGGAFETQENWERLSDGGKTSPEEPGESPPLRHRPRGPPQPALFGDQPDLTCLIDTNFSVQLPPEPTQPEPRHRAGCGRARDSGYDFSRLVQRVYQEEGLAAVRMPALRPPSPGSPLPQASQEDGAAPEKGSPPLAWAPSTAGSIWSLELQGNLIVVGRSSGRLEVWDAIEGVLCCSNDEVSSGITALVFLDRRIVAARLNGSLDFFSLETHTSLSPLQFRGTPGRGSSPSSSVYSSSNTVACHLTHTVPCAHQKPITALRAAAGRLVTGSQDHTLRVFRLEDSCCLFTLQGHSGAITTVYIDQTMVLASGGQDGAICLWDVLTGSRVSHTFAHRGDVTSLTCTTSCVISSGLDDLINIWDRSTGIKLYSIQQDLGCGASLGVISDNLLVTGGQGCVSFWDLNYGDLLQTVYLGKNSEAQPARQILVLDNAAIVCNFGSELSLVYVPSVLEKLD

Variants of: B1
Settings: with scap_crigr SCAP

Variant | effect of a mutation on the interaction
MPRLHDHFWSCSCAHSARRRGPPRASAAGLAAKVGEMINVSVSGPSLLAAHGAPDADPAPRGRSAAMSGPEPGSPYPNTWHHRLLQRSLVLFSVGVVLALVLNLLQIQRNVTLFPEEVIATIFSSAWWVPPCCGTAAAVVGLLYPCIDSHLGEPHKFKREWASVMRCIAVFVGINHASAKLDFANNVQLSLTLAALSLGLWWTFARSRSGLGLGITIAFLATLITQFLVYNGVYQYTSPDFLYIRSWLPCIFFSGGVTVGNIGRQLAMGVPEKPHSD [D205A] | disrupting interaction strength
